The values below come from the DeepSol protein solubility set.

The nature of this data set: soluble on expression in E. coli; label from the status in PepcDB or PDB records.
For “AAGTAKGHNPTEFPTIYDASSAPTAANTTVGIITIGGVSQTLQDLQQFTSANGLASVNTQTIQTGSSNGDYSDDQQGQGEWDLDSQSIVGSAGGAVQQLLFYMADQSASGNTGLTQAFNQAVSDNVAKVINVSLGWCEADANADGTLQAEDRIFATAAAQGQTFSVSSGDEGVYECNNRGYPDGSTYSVSWPASSPNVIAVGGTTLYTTSAGAYSNETVWNEGLDSNGKLWATGGGYSVYESKPSWQSVVSGTPGRRLLPDISFDAAQGTGALIYNYGQLQQIGGTSLASPIFVGLWARLQSANSNSLGFPAASFYSAISSTPSLVHDVKSGNNGYGGYGYNAGTGWDYPTGWGSLDIAKLSAYIRSNGFGH”, the “soluble on expression in E. coli” value is “soluble”.

With “AANDNNVEWNGLFHDQGPLFDNAPEPTSTQSVTLKLRTFKGDITSANIKYWDTADNAFHWVPMVWDSNDPTGTFDYWKGTIPASPSIKYYRFQINDGTSTAWYNGNGPSSTEPNADDFYIIPNFKTPDWLKNGVMYQIFPDRFYNGDSSNDVQTGSYTYNGTPTEKKAWGSSVYADPGYDNSLVFFGGDLAGIDQKLGYIKKTLGANILYLNPIFKAPTNHKYDTQDYMAVDPAFGDNSTLQTLINDIHSTANGPKGYLILDGVFNHTGDSHPWFDKYNNFSSQGAYESQSSPWYNYYTFYTWPDSYASFLGFNSLPKLNYGNSGSAVRGVIYNNSNSVAKTYLNPPYSVDGWRLDAAQYVDANGNNGSDVTNHQIWSEFRNAVKGVNSNAAIIGEYWGNANPWTAQGNQWDAATNFDGFTQPVSEWITGKDYQNNSASISTTQFDSWLRGTRANYPTNVQQSMMNFLSNHDITRFATRSGGDLWKTYLALIFQMTYVGTPTIYYGDEYGMQGGADPDNRRSFDWSQATPSNSAVALTQKLITIRNQYPALRTGSFMTLITDDTNKIYSYGRFDNVNRIAVVLNNDSVSHTVNVPVWQLSMPNGSTVTDKITGHSYTVQNGMVTVAVDGHYGAVLAQ”, the “soluble on expression in E. coli” value was “soluble”. For “AAPTAIEHMEPPFWWAGMQHKGLQLMVHGRDIGRMEAALDYPGVRLVSPTRVPNANYLFVDLEIGPEAQPGSFDIVFKGDGRSERYRYRLLAREQGSAQRQGFGPGDAIYQIMPDRFANGDPSNDNVAGMREQADRRHGGGRHGGDIRGTIDHLDYIAGLGFTQLWPTPLVENDAAAYSYHGYAATDHYRIDPRYGSNEDFVRLSTEARKRGMGLIQDVVLSHIGKHHWWMKDLPTPDWINYGGKFVPTQHHRVAVQDPYAAQADSENFTKGWFVEGMPDLNQTNPLVANYLIQNNIWWIEYAGLSGLRIDTYGYSDGAFLTEYTRRLMAEYPRLNMVGQEWSTRVPVVARWQRGKANFDGYTSHLPSLMDFPLVDAMRNALSKTGEENGLNEVYETLSLDYLYPEPQNLVLFGGNHDMARMFSAAGEDFDRWRMNLVFLMTMPRIPQFYSGDEILMTSTVKGRDDASYRRDFPGGWAGDKANAFSGAGLTSQQRAAQDLVRKLANWRKNQPVIHNGRLMHFGPEENTWVYFRYNKDKRIMVAMNNNDKPMTLPTARFQEMLKGAPSGVDFLSGKTVGLGRELRLAPKSVVVIELPGLPEA” the value was “soluble”; for “AAQEKVVKLKIVQTSDVHGNYYPYNFITRKDWQGSLARIYAFVEKEREQYKENLILLDNGDILQGQPTAYYYNYIDTVSPHLCAEMMNYMKYDAGNMGNHDVETGRAVFDRWINTCDFPVLGANIIDISTGEPHLPPYKVMERDGVKIVILGMITPAIPAWLSENLWKGLRFDDMEETARKWMKIIREKENPDLMIGLFHAGQEAFKMSGKYNENASLSVAKNVPGFDIVLMGHDHARECKKVMNVAGDSVLVIDPASNGIVLSNIDVTLKLKDGKVRSKDIKGVLTETKDYGISEDFMKNFAPQYDTVRNFVSK”, “not soluble”; for “AASSAQCDFGGPFQAYKSVNGPGNGGYYLRKTTKPGTPECAYVLVPQNTLSEGQSTSFTYGKLQNGQMIQLTATVTVNGDKIEVTGAGQDLSGTTTVLFSDYRSCDVMRGPDGNYELWVHSSAINLQSYGCCDTKFAQVAGGRPIHHTWQTYCPPLP”, “soluble”. For “AASWSHPQFEKGAETAVPNSGGGELFATHCAGCHPQGGNTVHPEKTLARARREANGIRTVRDVAAYIRNPGPGMPAFGEAMIPPADALKIGEYVVASFP” the value was “soluble”; for “AATQTWTGDLAIVTIPFSSLRFVKVTPPFSYKKRRAVIETHYDQATKVLLEFSRRWWEFTEADWKRELDAIAPGLYDYYQQWGEDDAEAALALPQSVRNLPTGLLGAHPSVDESRIGEEQVEYYRNSELR”, “soluble”; for “ADKKLVVATDTAFVPFEFKQGDLYVGFDVDLWAAIAKELKLDYELKPMDFSGIIPALQTKNVDLALAGITITDERKKAIDFSDGYYKSGLLVMVKANNNDVKSVKDLDGKVVAVKSGTGSVDYAKANIKTKDLRQFPNIDNAYMELGTNRADAVLHDTPNILYFIKTAGNGQFKAVGDSLEAQQYGIAFPKGSDELRDKVNGALKTLRENGTYNEIYKKWFGTEPK”, “soluble”. For “AEDRSLQAEPWFFGAIKRADAEKQLLYSENQTGAFLIRESESQKGDFSLSVLDEGVVKHYRIRRLDEGGFFLTRRKVFSTLNEFVNYYTTTSDGLCVKLEKPCLKIQV” the value was “soluble”. For “AEKANQVSNIKTQLAMEYMRGQDYRQATASIEDALKSDPKNELAWLVRAEIYQYLKVNDKAQESFRQALSIKPDSAEINNNYGWFLCGRLNRPAESMAYFDKALADPTYPTPYIANLNKGICSAKQGQFGLAEAYLKRSLAAQPQFPPAFKELARTKMLAGQLGDADYYFKKYQSRVEVLQADDLLLGWKIAKALGNAQAAYEYEAQLQANFPYSEELQTVLTGQ”, the “soluble on expression in E. coli” value is “soluble”. For “AEKRNIFLVGPMGAGKSTIGRQLAQQLNMEFYDSDQEIEKRTGADVGWVFDLEGEEGFRDREEKVINELTEKQGIVLATGGGSVKSRETRNRLSARGVVVYLETTIEKQLARTQRDKKRPLLHVETPPREVLEALANERNPLYEEIADVTIRTDDQSAKVVANQIIHMLESN” the value was “soluble”. For “AEMKTDAATLAQEAGNFERISGDLKTQIDQVESTAGSLQGQWRGAAGTAAQAAVVRFQEAANKQKQELDEISTNIRQAGVQYSRADEEQQQALSSQMGF” the value was “soluble”; for “AENAKIKFDGVDVERDSNVINDLVPNVTLSLKKPSSDMVEAKIEPDYEGIKRVLLDFIGAYNEVLAEINIVSSNEDQPNNQKSNIVEELTYLSDSQKEEAYKNLGILRSEFLLKNLKSKLESIIFKPYVTSDPNFSIINQMGVFTNSISSSGGLSRYLRLDEKKFDESIRNNIDNVRELFLYDLNGDRVYDNGIAKMLGDCLSPLVASGGVIYNKIKNYDLKIFNQKNKVEDYKKKYEDRERKVEGELNTLDFTVKRMKD”, “not soluble”. For “AESESFVLDFSQPSADYLDFRNRLQADHVCLENCVLKDKAIAGTVKVQNLAFEKTVKIRMTFDTWKSYTDFPCQYVKDTYAGSDRDTFSFDISLPEKIQSYERMEFAVYYECNGQTYWDSNRGKNYRIIRAELKSTQGMTKPHSGPDLG” the value was “soluble”; for “AEVNDPRVGFVAVVTFPVDGPATQHKLVELATGGVQEWIREVPGFLSATYHASTDGTAVVNYAQWESEQAYRVNFGADPRSAELREALSSLPGLMGPPKAVFMTPRGAILPS”, “soluble”. For the sequence “AFTMEIPPTHYAASRAASVAENCINYQQGTPHKLFLVQTVQQASKEDIPGRGHKYHLKFSVEEIIQKQVTVNCTAEVLYPQMGQGSAPEVNFTFEGEIGKNPDEEDNTFYQSLMSLKRPLEAQDIPDNFGNVSPQMKPVQHLAWVACGYVMWQNSTEDTWYKMLKIQTVKQVQRNDDFIELDYTILLHDIASQEIIPWQMQVLWHPQYGTKVKHNSRLPKEGQAE”, the “soluble on expression in E. coli” value was “soluble”. Turning to “AGSMEDIPVEEAVLTGVATDNSEAKITVLGIPDSPGSASAVFRALADAEINIDTVLQNISSLEDNRTDITFTCPRADGPHAMELLRNLQAKNDWQNVLYDDQIGKVSLVGAGMKSHPGVTAEFCEALRDAGVNIELISTSEIRISVLIRESDVDVAARAIHEKFELGGETEAIVYAGTGR”, the “soluble on expression in E. coli” value is on record as “not soluble”. For “AHHHHHHGSAVRLKTPLTWEDIRDLEIGDRVLLSGIVYTARDLAHRRFLEEGFPFNPEGAVIYHCGPLIKNGIVVSAGPTTSARMEKYLDFLFNRGVRGVIGKGGMNHEKFKGRAVYFSYPGGAGSLAREFIVKVRDVYWEDLGMTDAVWELEVRDMPLLVSIDSKGRSLYRKN” the value was “soluble”.
